Test results as given in publication PMC7914648 (Pharmaceuticals, 2021).
Several values for one entry are separate records, joined by “and”; a condition that tells them apart may be missing. Equal entries are not always repeated.

What was measured:
[1] = fresh mouse blood, withdrawn from the jugular vein and heparinized; settings: C57BL mice, 37 °C, up to 4 h
[2] = Tissue distribution of An2-PAPTP and metabolites (liver, spleen, kidneys, heart) after i.v. injection; format: in vivo, mouse; settings: for metabolite in heart, 15 min / metabolite in spleen, 15 min: N = 5; for metabolite in liver, 15 min: n = 5; for metabolite in liver, 30 min: n = 4; for metabolite in liver, 60 min: n = 6; for metabolite in kidneys, 15 min, single animal: found in one animal out of five
From the text: The total amount of An2-PAPTP and its metabolites, summarized in Table 3, is comprehensive of all the species having the characteristic psoralenic UV spectrum obtained by the overall extraction procedure (i.e., from organic solvent extraction and basic hydrolysis of the remaining pellet), and represents and underestimation of the real concentration in the tissue (see Section 4.7.3). This is because no recovery yield correction was applied, since it was impossible to identify most of the species extracted, and because PAPTPL extracted after high-pH hydrolysis of the pellet could come either from An2-PAPTP or from metabolites. For quantification in HPLC analysis, all the psoralenic species were assumed to have the same molar extinction coefficient as PAPTPL, an assumption justified by the near-identity observed for all the available psoralen-containing molecules.
(§1) The liver, spleen, kidneys, heart obtained from untreated mice were weighed and homogenized with PBS pH 7.4 (1 vol) with a potter. The pre-established amount of PAPTPL was added into tissue homogenates or blood and, after thorough vortexing, 5 vol of acetone were added and the sample was sonicated for 2 min. Subsequently, 5 vol of ACN containing 0.1% TFA were added and the sample was sonicated for 5 min. The sample was then centrifuged at 12,000× g for 7 min at 4 °C and the supernatant was collected, concentrated with a Hetovac VR-1, and analyzed via HPLC-UV.
as §1, with “Brain and liver” for “The liver, spleen, kidneys, heart”, “analyte” for “PAPTPL”, “homogenates” for “homogenates or blood”, “trifluoracetic acid (TFA)” for “TFA”
To quantify the amount of An2-PAPTP stuck in the tissue, the pellet remaining after the procedure described above was incubated with intermittent Vortexing at 60 °C for 3 h with PBS pH 12.5/ACN 1:1 and then centrifuged at 12,000× g for 7 min. HPLC-UV analysis of the supernatant, measuring PAPTPL hydrolyzed from the tissue, thus indirectly reflects the amount of An2-PAPTPL in the pellet (Scheme 3). Quantification was as described for PAPTPL.
A stock solution of the peptide-PAPTP conjugates was prepared in DMSO. TAT-PAPTP was administered at 8 and 5 μmol/kg bw and An2-PAPTP only at 5 μmol/kg bw. The calculated quantity of drugs was diluted from the stock solution in saline or mouse plasma to a final volume of 200 μL.

[3] = parameters: method as in 4 sources, ref 50, 59 = [50]; PMID 12697897; doi:10.1073/pnas.0931245100; 50. Smith R.A.J. Porteous C.M. Gane A.M. Murphy M.P. Delivery of bioactive molecules to mitochondria in vivo Proc. Natl. Acad. Sci. USA 2003 100 5407 5412 10.1073/pnas.0931245100 12697897 PMC154358 || [59]; PMID 23454352; doi:10.1016/j.bbagen.2013.02.005; 59. Porteous C.M. Menon D.K. Aigbirhio F.I. Smith R.A. Murphy M.P. P-glycoprotein (Mdr1a/1b) and breast cancer resistance protein (Bcrp) decrease the uptake of hydrophobic alkyl triphenylphosphonium c ||| ref 59 = [59]; PMID 23454352; doi:10.1016/j.bbagen.2013.02.005; 59. Porteous C.M. Menon D.K. Aigbirhio F.I. Smith R.A. Murphy M.P. P-glycoprotein (Mdr1a/1b) and breast cancer resistance protein (Bcrp) decrease the uptake of hydrophobic alkyl triphenylphosphonium c ||| ref 50 = [50]; PMID 12697897; doi:10.1073/pnas.0931245100; 50. Smith R.A.J. Porteous C.M. Gane A.M. Murphy M.P. Delivery of bioactive molecules to mitochondria in vivo Proc. Natl. Acad. Sci. USA 2003 100 5407 5412 10.1073/pnas.0931245100 12697897 PMC154358 ||| ref 60 = [60]; PMID 31751762; doi:10.1016/j.freeradbiomed.2019.11.021; 60. Pinho B.R. Duarte A.I. Canas P.M. Moreira P.I. Murphy M.P. Oliveira J.M.A. The interplay between redox signalling and proteostasis in neurodegeneration: In vivo effects of a mitochondria-targeted; settings: cited from earlier work
From the text: TPP-driven mitochondriotropic compounds are not necessarily excluded from the brain [47, 48, 49, 50]. The literature contains several reports of the use of mitochondria-targeted probes to report on cerebral processes or of mitochondria-tar ...

[4] = after An2-PAPTP 5 µmoles/kg bw i.v., mean ± SEM
[5] = after An2-PAPTP 5 µmoles/kg bw i.v., liver, mean ± SEM
[6] = after An2-PAPTP 5 µmoles/kg bw i.v., liver, 30 min, mean ± SEM
[7] = after An2-PAPTP i.v., mean ± SEM, N = 4
[8] = after An2-PAPTP i.v., mean ± SEM
[9] = after An2-PAPTP i.v., mean ± SEM, N = 6
[10] = after An2-PAPTP i.v., kidneys, found in one animal out of four

Row | Compound | metabolite in heart, 15 min [2, 4] [nmol/g fresh tissue] | metabolite in liver, 15 min [2, 5] [% administered dose] | metabolite in liver, 30 min [2, 6] [% administered dose] | metabolite in liver, 60 min [2, 5] [% administered dose] | metabolite in heart, 30 min [2, 7] [% administered dose] | metabolite in heart, 15 min [2, 8] [% administered dose] | metabolite in kidneys, 15 min, single animal ([2]; after An2-PAPTP i.v., kidneys) | metabolite in spleen, 30 min [2, 7] [% administered dose] | metabolite in spleen, 15 min [2, 8] [% administered dose] | metabolite in spleen, 60 min [2, 9] [% administered dose] | metabolite in kidneys, 30 min, single animal [2, 10] | further results
1 | HN-IGRKKRRQRRRPPQG-OH |  |  |  |  |  |  |  |  |  |  |  | cleaved bond [1]: hydrolysis of the carbamate bond connecting the peptide and PAPTPL
2 | CC[C@H](C)[C@H](NC(=O)Oc1ccc(CCCOc2ccc([P+](CCCc3ccc(OCCCCOc4c5ccoc5cc5oc(=O)ccc45)cc3)(c3ccccc3)c3ccccc3)cc2)cc1)C(=O)N[C@H](C(=O)N[C@@H](Cc1ccccc1)C(=O)O)[C@@H](C)O [PAPTPL-ITF, PAPTPL-isoleucine-threonine-phenylalanine] | 0 | 1.7 ± 1.0 | 1.2 ± 0.5 | 3.9 ± 1.0 | 0.008 ± 0.007 | 0 | 0.01 % administered dose | 0.02 ± 0.01 | 0.13 ± 0.08 | 0.08 ± 0.01 |  | metabolite in kidneys, 30 min ([2]; after An2-PAPTP i.v., kidneys, mean ± SEM, N = 4): 0.12 ± 0.08 % administered dose; metabolite in kidneys, 60 min ([2]; after An2-PAPTP i.v., kidneys, mean ± SEM, N = 6): 0.02 ± 0.01 % administered dose
3 | CC[C@H](C)[C@H](NC(=O)Oc1ccc(CCCOc2ccc([P+](CCCc3ccc(OCCCCOc4c5ccoc5cc5oc(=O)ccc45)cc3)(c3ccccc3)c3ccccc3)cc2)cc1)C(=O)N[C@H](C(=O)O)[C@@H](C)O [PAPTPL-IT, PAPTPL-isoleucine- threonine] | 0 | 2.8 ± 1.0 | 2.7 ± 1.8 | 6.2 ± 1.6 | 0.01 ± 0.01 | 0 | 0.04 % administered dose | 0.07 ± 0.04 | 0.10 ± 0.04 | 0.07 ± 0.03 | 0.05 % administered dose | metabolite in kidneys, 60 min, single animal ([2]; after An2-PAPTP i.v., kidneys, found in one animal out of six): 0.006 % administered dose
4 | COC1=C(OC)C(=O)C(CCCCCCCCCC[P+](c2ccccc2)(c2ccccc2)c2ccccc2)=C(C)C1=O [MitoQ] |  |  |  |  |  |  |  |  |  |  |  | amount in the brain, R6/2 mice ([3]; 500 µM MitoQ in drinking water for 6 weeks, R6/2 mice): ~5 pmol/g; amount in the brain, WT mice ([3]; 500 µM MitoQ in drinking water for 6 weeks, WT mice): about 1 pmol/g; steady-state brain radioactivity levels ([3]; 10-day administration of 500 µM in drinking water): ~0.15 nmol/gr fresh tissue; initial peak concentration in brain tissue ([3]; i.v. injection of 100 nmol radiolabelled compound in (WT) mice, scintillation counting): about 0.05 nmol/gr; Area Under Curve in brain ([3]; i.v., wild-type mice): 0.6 nmol·h/g wet weight
5 | CCC(C)C(NC(=O)Oc1ccc(CCCOc2ccc([P+](CCCc3ccc(OCCCCOc4c5ccoc5cc5oc(=O)ccc45)cc3)(c3ccccc3)c3ccccc3)cc2)cc1)C(=O)O.O=C([O-])C(F)(F)F (stereo not drawn) [PAPTPL-I, (4-(3-(4-(((1-carboxy-2-methylbutyl)carbamoyl)oxy)phenyl)propoxy)phenyl) (3-(4-(4-((7-oxo-7H-furo[3,2-g]chromen-4-yl)oxy)butoxy)phenyl)propyl)diphenylphosphonium 2,2,2-trifluoroacetate] | 0 | 0.4 ± 0.2 |  |  |  | 0 | 0.32 nmol/g fresh tissue and 0.02 % administered dose |  | 0.04 ± 0.02 |  | 0.32 nmol/g fresh tissue and 0.03 % administered dose | metabolite in liver, 15 min ([2]; after An2-PAPTP 5 µmoles/kg bw i.v. in mouse plasma, liver, HPLC-UV, mean ± SEM): 0.5 ± 0.3 nmol/g fresh tissue; metabolite in spleen, 15 min [2, 4]: 0.7 ± 0.3 nmol/g fresh tissue; metabolite in liver, 30 min, single animal ([2]; after An2-PAPTP i.v., liver, 30 min, found in one animal out of four): 0.2 nmol/g fresh tissue and 0.03 % administered dose
